Data as given in patent US20240109974A1 (SHANDONG SIMCERE BIOPHARMACEUTICAL, published 2024).

T1: human TNFR2 on the surface of CHO-TNFR2 cells (human, UniProt P20333 23-461)
T1 construct: whole, on cells
T1 sequence (looked up): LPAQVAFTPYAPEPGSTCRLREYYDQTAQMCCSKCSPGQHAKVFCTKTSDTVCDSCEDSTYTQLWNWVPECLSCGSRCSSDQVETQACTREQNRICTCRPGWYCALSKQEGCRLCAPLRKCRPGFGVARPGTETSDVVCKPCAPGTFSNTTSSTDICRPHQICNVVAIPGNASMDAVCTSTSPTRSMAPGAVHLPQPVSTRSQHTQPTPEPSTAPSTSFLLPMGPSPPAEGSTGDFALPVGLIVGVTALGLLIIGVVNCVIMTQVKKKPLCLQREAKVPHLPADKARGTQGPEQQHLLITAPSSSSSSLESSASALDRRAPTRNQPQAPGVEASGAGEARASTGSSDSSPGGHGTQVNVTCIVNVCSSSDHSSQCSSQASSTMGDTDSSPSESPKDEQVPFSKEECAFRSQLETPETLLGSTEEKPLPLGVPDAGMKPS

T2: Human TNFR2-His (Sino 10417-H08H) (human, UniProt P20333 23-257)
T2 construct: Bought protein; also called recombinant human TNFR2 protein; not shown: His tag
T2 sequence (looked up): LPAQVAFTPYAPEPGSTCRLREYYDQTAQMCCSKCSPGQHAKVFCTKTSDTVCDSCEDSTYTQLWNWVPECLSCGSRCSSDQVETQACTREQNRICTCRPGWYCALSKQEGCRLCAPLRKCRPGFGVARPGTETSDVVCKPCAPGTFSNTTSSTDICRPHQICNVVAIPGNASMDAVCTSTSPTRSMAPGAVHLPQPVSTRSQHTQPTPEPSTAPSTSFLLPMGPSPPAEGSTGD

T3: Cynomolgus TNFR2-His (Sino 90102-C08H) (cynomolgus monkey, UniProt A0A2K5VET2 132-366)
T3 construct: Bought protein; also called cynomolgus monkey TNFR2; recombinant cynomolgus monkey TNFR2 protein; not shown: His tag
T3 sequence: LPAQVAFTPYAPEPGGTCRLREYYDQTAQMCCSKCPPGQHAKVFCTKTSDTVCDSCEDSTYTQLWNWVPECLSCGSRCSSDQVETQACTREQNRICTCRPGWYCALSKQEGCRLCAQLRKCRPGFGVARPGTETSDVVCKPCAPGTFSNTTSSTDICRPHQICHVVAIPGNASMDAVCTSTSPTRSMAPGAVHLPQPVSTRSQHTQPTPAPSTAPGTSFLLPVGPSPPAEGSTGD


Tests used:
[1] = target: T1, human TNFR2 on the surface of CHO-TNFR2 …; experiment: competition flow cytometry on CHO-TNFR2 cells, competitor human TNFα-biotin
Description: CHO stable cells highly expressing human TNFR2 were used for the experiment (the same as CHO-TNFR2 in Example 4). The CHO-TNFR2 cells were digested, washed twice with DPBS, then stained with Live/Dead (L/D) (20 minutes at room temperature), and plated at a density of 1×10⁵ cells/50 μl/well. A test anti-TNFR2 antibody was diluted to 6 μg/ml with a staining buffer as the starting concentration: the antibody was subjected to 3.33-fold gradient dilution, with a total of 7 concentration points. The diluted antibody was added to the plated cells at 50 μl/well, and the mixture was mixed well by gentle pipetting, and incubated at 4° C. for 30 minutes. Then the diluted 100 ng/ml of human TNFα-biotin was added at 100 μl/well, and the mixture was mixed well by gentle pipetting, and then incubated at 4° C. for 30 minutes. The mixture was washed twice with a staining buffer, and then 0.12 μg/ml PE-streptavidin (BioLegend, Cat #405204) was added at 100 μl/well; the resulting mixture was incubated at 4° C. for 30 minutes. The mixture was washed twice with a staining buffer, and then 150 μl of staining buffer was added to resuspend the cells; signals were detected by a flow cytometer (Thermo Attune NxT). The inhibitory curve of an antibody was drawn with antibody concentration as the abscissa and corresponding MFI value as the ordinate, and fitted with four parameters (GraphPad Prism9) to calculate the IC50 value. The smaller the IC50 value, the stronger the ability of an antibody to inhibit the binding of human TNFα to human TNFR2. The blocking effect of a humanized antibody was normalized to its corresponding human-murine chimeric WT antibody. The higher the percentage value, the better the inhibitory effect of the humanized antibody.

[2] = target: T2, Human TNFR2-His (Sino 10417-H08H); experiment: ELISA, human TNFR2-His coated
Description: (§1) The test humanized antibody against TNFR2 (as described in Example 1, the antibody was comprised of variable regions linked to IgG-Fc; the WT chimeric antibody also adopted the IgG-Fc structure) was subjected to 3.33-fold gradient dilution, loaded with 100 μl/well, and incubated with shaking at room temperature for 1.5 hours. The plate was washed, and then a working solution of murine anti-human IgG Fc-HRP (diluted at 1:10000) was added, loaded with 100 μl/well, and incubated with shaking at room temperature for 1.0 hour. The plate was washed again, and then the substrate TMB of HRP was added to develop colour. A stop solution was added to stop the reaction, and then a microplate reader (MD 13) was used to read the absorbance value. The binding curve of an antibody was drawn with antibody concentration as the abscissa and corresponding OD value as the ordinate, and fitted with four parameters (GraphPad Prism9) to calculate the EC50 value. The smaller the EC50 value, the stronger the binding ability of an antibody to human/cynomolgus monkey TNFR2. The binding effect of a humanized antibody was normalized to its corresponding human-murine chimeric antibody WT (see SEQ ID NOs: 38-43 for the sequence). The higher the percentage value, the better the binding effect of the humanized antibody. The results of binding of an anti-TNFR2 antibody to a human TNFR2 protein are shown in FIG. 1 and Table 4, and the results of binding of an anti-TNFR2 antibody to cynomolgus monkey TNFR2 are shown in FIG. 2 and Table 4.

[3] = target: T3, Cynomolgus TNFR2-His (Sino 90102-C08H); experiment: ELISA, cynomolgus TNFR2-His coated
Description: as §1

[4] = target: T2, Human TNFR2-His (Sino 10417-H08H); experiment: SPR (Biacore T200), antibody captured on Protein A chip
Description: (§2) Biacore was used to detect the specific binding of a test anti-TNFR2 antibody to human and cynomolgus monkey TNFR2 proteins. In this experiment, a Protein A chip was used, the time required for the chip to capture the diluted antibody was determined by manual run, so that the Rmax of the saturated binding to an antigen was 50 RU. […] The affinity of an antibody for an antigen was determined by using multi-cycle dynamics. In each cycle, an antibody was injected and then a TNFR2 protein at a gradient concentration was injected, so that the antigen and the antibody underwent binding and dissociation processes. After each cycle, the Protein A chip was regenerated with Glycine pH 1.5 (removing the protein on the chip). The affinity KD of an antibody and an antigen was fitted with BIAcore T200 analysis software.

[5] = target: T3, Cynomolgus TNFR2-His (Sino 90102-C08H); experiment: as above
Description: as §2

Binder | IC50 [1] | EC50 [2] | EC50 [3] | Kd [4] | koff [4] | kon [4] | Kd [5] | koff [5] | kon [5]
219-Hu4 (antibody, V domains shown, also called VH6 + VL5) VH: QVQLVQSGAEVKKPGSSVKVSCKASGYSFTNYWMNWVKQAPGQGLEWIGMIHPSDTETRLNQNFKDKATLTVDKSTSTAYMELSSLRSEDTAVYYCARGEGLGAARSVSMDYWGQGTLVTVSS VL: DIQMTQSPSSLSASVGDRVTITCRASQDISNYLNWYQQKPDGTVKLLIYYTAILHSGVPSRFSGSGSGTDYSLTISSLQPEDFATYFCQQGNTLPWTFGQGTKVEIK | 0.043 µg/mL | 0.0168 µg/mL | 0.0123 µg/mL | 0.318 nM | 0.000154 s⁻¹ | 484000 M⁻¹ s⁻¹ | 0.576 nM | 0.000389 s⁻¹ | 675000 M⁻¹ s⁻¹
219-Hu5 (antibody, V domains shown, also called VH7 + VL5) VH: QVQLVQSGAEVKKPGSSVKVSCKASGYSFTNYWMNWVRQAPGQGLEWMGMIHPSDTETRLNQNFKDRVTITVDKSTSTAYMELSSLRSEDTAVYYCARGEGLGAARSVSMDYWGQGTLVTVSS VL: DIQMTQSPSSLSASVGDRVTITCRASQDISNYLNWYQQKPDGTVKLLIYYTAILHSGVPSRFSGSGSGTDYSLTISSLQPEDFATYFCQQGNTLPWTFGQGTKVEIK | 0.039 µg/mL | 0.0173 µg/mL | 0.0122 µg/mL | 0.309 nM | 0.000137 s⁻¹ | 445000 M⁻¹ s⁻¹ | 0.626 nM | 0.000381 s⁻¹ | 608000 M⁻¹ s⁻¹
224-Hu1 (antibody, V domains shown, Humanized form of #224; also called VH8 + VL6) VH: QVQLVQSGAEVKKPGASVKVSCKASGFNNKDIYMHWVRQAPGQGLEWIGRIDPATGNTKHDPKFQDRVTMTSDTSTNTVYMELSSLRSEDTAVYYCARSPYGDFGAMDYWGQGTLVTVSS VL: DIQMTQSPSSLSASVGDRVTITCTASSSVSSNYLHWYQQKPGKAPKLWIYSTSNLPSGVPSRFSGSGSGTDFTLTISSLQPEDFATYYCHQYHRSPWTFGQGTKVEIK | 0.042 µg/mL | 0.0104 µg/mL | 0.00998 µg/mL | 6.57 nM | 0.000766 s⁻¹ | 117000 M⁻¹ s⁻¹ | 3.95 nM | 0.000953 s⁻¹ | 241000 M⁻¹ s⁻¹
224-Hu7 (antibody, V domains shown, Humanized form of #224; also called VH9 + VL10) VH: QVQLVQSGSELKKPGASVKVSCKASGFNNKDIYMHWVRQAPGQGLEWMGRIDPATGNTKHDPKFQDKAVLSSDTSVSTAYLQISSLKAEDTAVYYCARSPYGDFGAMDYWGQGTLVTVSS VL: DIQMTQSPSSLSASVGDRVTITCTASSSVSSNYLHWYQQKPGKAPKLLIYSTSNLPSGVPSRFSGSGSGTDFTLTISSLQPEDFATYYCHQYHRSPWTFGQGTKVEIK | 0.065 µg/mL | 0.0096 µg/mL | 0.00839 µg/mL | 5.64 nM | 0.000815 s⁻¹ | 145000 M⁻¹ s⁻¹ | 3.12 nM | 0.000991 s⁻¹ | 318000 M⁻¹ s⁻¹
224-Hu3 (antibody, V domains shown, Humanized form of #224; also called VH9 + VL8) VH: QVQLVQSGSELKKPGASVKVSCKASGFNNKDIYMHWVRQAPGQGLEWMGRIDPATGNTKHDPKFQDKAVLSSDTSVSTAYLQISSLKAEDTAVYYCARSPYGDFGAMDYWGQGTLVTVSS VL: DIQMTQSPSSLSASVGDRVTITCTASSSVSSNYLHWYQQKPGKAPKLLIYSTSNLPSGVPSRFSGSGSGTDFTLTISSLQAEDAATYYCHQYHRSPWTFGQGTKVEIK | 0.044 µg/mL | 0.0122 µg/mL | 0.00969 µg/mL | 4.1 nM | 0.000726 s⁻¹ | 177000 M⁻¹ s⁻¹ | 2.97 nM | 0.000847 s⁻¹ | 285000 M⁻¹ s⁻¹
224-Hu6 (antibody, V domains shown, Humanized form of #224; also called VH8 + VL7) VH: QVQLVQSGAEVKKPGASVKVSCKASGFNNKDIYMHWVRQAPGQGLEWIGRIDPATGNTKHDPKFQDRVTMTSDTSTNTVYMELSSLRSEDTAVYYCARSPYGDFGAMDYWGQGTLVTVSS VL: DIQMTQSPSSLSASVGDRVTITCTASSSVSSNYLHWYQQKPGSSPKLWIYSTSNLPSGVPSRFSGSGSGTDFTLTISSLQPEDFATYYCHQYHRSPWTFGQGTKVEIK | 0.061 µg/mL | 0.0111 µg/mL | 0.00997 µg/mL | 4.08 nM | 0.000697 s⁻¹ | 171000 M⁻¹ s⁻¹ | 2.63 nM | 0.000848 s⁻¹ | 323000 M⁻¹ s⁻¹
224-Hu2 (antibody, V domains shown, Humanized form of #224; also called VH9 + VL7) VH: QVQLVQSGSELKKPGASVKVSCKASGFNNKDIYMHWVRQAPGQGLEWMGRIDPATGNTKHDPKFQDKAVLSSDTSVSTAYLQISSLKAEDTAVYYCARSPYGDFGAMDYWGQGTLVTVSS VL: DIQMTQSPSSLSASVGDRVTITCTASSSVSSNYLHWYQQKPGSSPKLWIYSTSNLPSGVPSRFSGSGSGTDFTLTISSLQPEDFATYYCHQYHRSPWTFGQGTKVEIK | 0.036 µg/mL | 0.0108 µg/mL | 0.00962 µg/mL | 4.31 nM | 0.000686 s⁻¹ | 159000 M⁻¹ s⁻¹ | 2.95 nM | 0.000835 s⁻¹ | 283000 M⁻¹ s⁻¹
224-Hu4 (antibody, V domains shown, Humanized form of #224; also called VH9 + VL6) VH: QVQLVQSGSELKKPGASVKVSCKASGFNNKDIYMHWVRQAPGQGLEWMGRIDPATGNTKHDPKFQDKAVLSSDTSVSTAYLQISSLKAEDTAVYYCARSPYGDFGAMDYWGQGTLVTVSS VL: DIQMTQSPSSLSASVGDRVTITCTASSSVSSNYLHWYQQKPGKAPKLWIYSTSNLPSGVPSRFSGSGSGTDFTLTISSLQPEDFATYYCHQYHRSPWTFGQGTKVEIK | 0.058 µg/mL | 0.0107 µg/mL | 0.00956 µg/mL | 5.59 nM | 0.00072 s⁻¹ | 129000 M⁻¹ s⁻¹ | 3.17 nM | 0.000881 s⁻¹ | 278000 M⁻¹ s⁻¹
